Measurements as given in paper PMC10333379.

Biological target: human angiotensin-converting enzyme 2 (hACE2) with an Fc domain (human) (UniProt Q9BYF1)
Assay: BLI

Sequence of UniProt Q9BYF1 (Q9BYF1 18-740): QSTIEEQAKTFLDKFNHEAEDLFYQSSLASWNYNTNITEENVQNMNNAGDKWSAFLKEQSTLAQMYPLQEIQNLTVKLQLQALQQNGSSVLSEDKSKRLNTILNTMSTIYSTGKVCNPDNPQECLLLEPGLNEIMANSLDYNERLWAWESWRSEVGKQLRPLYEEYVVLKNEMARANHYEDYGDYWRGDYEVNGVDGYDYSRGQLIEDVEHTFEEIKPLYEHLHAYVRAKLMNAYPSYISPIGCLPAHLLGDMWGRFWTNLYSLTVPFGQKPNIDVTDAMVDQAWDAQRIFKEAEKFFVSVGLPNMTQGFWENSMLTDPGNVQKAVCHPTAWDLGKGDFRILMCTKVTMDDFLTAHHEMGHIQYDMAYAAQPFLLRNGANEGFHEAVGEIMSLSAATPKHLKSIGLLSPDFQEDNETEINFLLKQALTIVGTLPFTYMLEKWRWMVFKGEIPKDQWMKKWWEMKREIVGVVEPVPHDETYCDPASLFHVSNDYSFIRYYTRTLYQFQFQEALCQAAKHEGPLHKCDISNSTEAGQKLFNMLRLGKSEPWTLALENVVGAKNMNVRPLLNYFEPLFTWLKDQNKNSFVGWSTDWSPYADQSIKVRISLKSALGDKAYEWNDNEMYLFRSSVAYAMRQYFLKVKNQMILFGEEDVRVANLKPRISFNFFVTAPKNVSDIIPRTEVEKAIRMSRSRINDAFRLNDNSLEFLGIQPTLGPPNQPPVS

In the case of “Bat SARS-like coronavirus CX1 receptor-binding domain (RBD) of spike protein (domain or fragment)”, the Kd is reported as 10.7 nM.
